Data as given in article PMC6125681, “Stability of local secondary structure determines selectivity of viral RNA chaperones”.
Several values for one entry are separate records, joined by “and”; a condition that tells them apart may be missing. Identical values can stand only once.

How the values were obtained:
[1] = target: T1, σNS (Avian reovirus (strain not given)) (UniProt W8NR44); assay: fluorescence anisotropy
T1 sequence: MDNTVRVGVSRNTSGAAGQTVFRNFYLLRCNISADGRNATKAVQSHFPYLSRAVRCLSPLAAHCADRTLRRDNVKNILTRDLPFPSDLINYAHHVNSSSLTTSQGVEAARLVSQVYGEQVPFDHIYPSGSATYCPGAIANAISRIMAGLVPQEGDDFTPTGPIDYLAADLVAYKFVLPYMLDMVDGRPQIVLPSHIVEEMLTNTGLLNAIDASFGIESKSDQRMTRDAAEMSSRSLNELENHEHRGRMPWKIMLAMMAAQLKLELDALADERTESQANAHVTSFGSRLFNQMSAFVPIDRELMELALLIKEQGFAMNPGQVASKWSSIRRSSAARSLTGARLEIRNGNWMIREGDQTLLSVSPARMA

[2] = target: avian reovirus (ARV) σNS (avian reovirus); assay: native MS; nanoESI-IMS-MS of σNS apoprotein, 20 μM, 200 mM ammonium acetate pH 7.6; no RNA
[3] = target: avian reovirus (ARV) σNS (avian reovirus); assay: native MS; nanoESI-IMS-MS of σNS–RNP complex (σNS saturated with unstructured 20mer RNA), 20 μM, 200 mM ammonium acetate pH 7.6
[4] = target: avian reovirus (ARV) σNS (avian reovirus); assay: native MS; nanoESI-IMS-MS of σNS apoprotein, 20 μM, 200 mM ammonium acetate pH 7.6; no RNA; remark: listed apart in the source
NSP2 [5] = target: T2, NSP2 (Rotavirus (strain  in …, UniProt A2T3N6 1-317)); assay: fluorescence anisotropy; no Mg2+; one value given for all three RNAs; details: protein: recombinant, chain copies: 8, label: 5' AlexaFluor488, hairpin
T2 sequence: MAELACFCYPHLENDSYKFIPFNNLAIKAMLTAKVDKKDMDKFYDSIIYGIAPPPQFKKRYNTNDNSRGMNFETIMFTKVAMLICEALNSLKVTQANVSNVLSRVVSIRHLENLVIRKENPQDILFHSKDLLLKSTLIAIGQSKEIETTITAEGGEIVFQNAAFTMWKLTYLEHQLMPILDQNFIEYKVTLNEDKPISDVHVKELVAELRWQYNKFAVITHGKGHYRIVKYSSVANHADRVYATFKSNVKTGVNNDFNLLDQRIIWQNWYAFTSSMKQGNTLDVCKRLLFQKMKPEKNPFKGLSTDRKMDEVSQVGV

NSP2 [6] = target: T2, NSP2; assay: FCCS; multiple RNAs per octamer; details: protein: recombinant; chain copies: 8; label: Cy3 or Cy5 (same string printed for both); unstructured; text calls the two labelled RNAs distinct non-complementary
NSP2 [7] = target: T2, NSP2; assay: fluorescence anisotropy; no Mg2+; details: protein: recombinant; chain copies: 8; label: 5' AlexaFluor488; unstructured, MFE 0
NSP2 [8] = target: T2, NSP2; assay: fluorescence anisotropy; 10 mM MgCl2; details: protein: recombinant; chain copies: 8; label: 5' AlexaFluor488; unstructured, MFE 0
NSP2 [9] = target: T2, NSP2; assay: single-pair FRET; 25 nM protein; binds folded and unfolded RNA; details: protein: recombinant; chain copies: 8; Methods state the reverse; hairpin, -8.9 kcal/mol

CUUCUUUCGAAAUUAAGAAG [metastable 20mer]
Kd [1]: 24 nM

CUUUUCAAGACAUGCAACAA [unstructured 20mer]
Kd [1]: 37 nM
binding signal (fold Kd increase vs no Mg2+) [1]: 1.5

UCUUUGCAAACAUGCAAAGA [stable 20mer hairpin]
Kd [1]: 137 nM

avian reovirus (ARV) σNS (natural protein)
stoichiometry N [2]: 6
stoichiometry N [3]: 8 and 6
stoichiometry N [4]: 8

UCUUUGCAAACAUGCAAAGA (structured_RNA) [stable 20mer hairpin]
Kd (NSP2 [5]; -8.1 kcal/mol): ~20 nM

UUCCUUCUAUUUCUUCU (ssRNA) [17mer (S11-derived)]
binding result (NSP2 [6]): binds

CUUCUUUCGAAAUUAAGAAG (structured_RNA) [metastable 20mer]
Kd (NSP2 [5]; -3.8 kcal/mol): ~20 nM

CUUUUCAAGACAUGCAACAA (ssRNA) [unstructured 20mer]
Kd (NSP2 [7]): 20.7 ± 1.67 nM
Kd (NSP2 [8]): 28 ± 1.48 nM

AAAUCUUUGCAAACUAUCCAAUCCAUGCAAAGAUAA (structured_RNA) [dual-labelled 36mer stem-loop]
binding result (NSP2 [9]): binds
